Key:
Human DR5 = Human DR5 (Homo sapiens, UniProt O14763); test: Binding affinity of antibody to human DR5 (BIAcore, CM5 chip)
Experimental: In order to measure affinity, human DR5 was coupled to carboxylated dextran biosensor chips (CM5, GE) according to the manufacturer's instruction. Association and dissociation rates were assessed by injecting IgG proteins that were 2-fold serially diluted to 5 nM, 2.5 nM, 1.25 nM, 0.625 nM, 0.313 nM, and 0.156 nM.
Association and dissociation rates were depicted in association and dissociation sensorgrams and calculated using a simple 1:1 Langmuir binding model (BIAcore X100 Evaluation Software, ver. 2.0). The equilibrium dissociation constants (KD), which is the ratio of dissociation constant (Kd) to association constant (Ka), were confirmed to be in the sub-nanomolar range. Measurements of the binding of antibody D0 and DA1 to DA35 of the present disclosure to DR5 are given in Table 11 below (antibody names are given as the names of the clones from which the antibodies were derived). A representative sensorgram for D0 is depicted in FIG. 1.

caspase-3/7 [1] = test: Intracellular caspase activity (Apo-ONE Caspase-3/7), Colo205; type: cell-based, human; conditions: Colo205, Ab alone or Ab linked, 4 hours
Experimental: (§1) In order to investigate the cell death mechanism thereof, the constructed antibodies were assayed for caspase activity. The activity of caspase-3/7 was measured using Apo-ONE® Homogeneous Caspase-3/7 Assay kit (Promega, U.S.A.). In this assay, the human colorectal cancer cell line Colo205 (ATCC, U.S.A.), the human pancreatic cancer cell line Miapaca-2 (ATCC, U.S.A.), and the lung cancer cell line H2122 (ATCC, U.S.A.) were employed. A suspension of each tumor cell line having a concentration of 1×10^5 cells/ml was plated at a volume of 50 μl per well into 96-well cell culture plates and cultured for 16-24 hours in a constant temperature and humidity chamber. The cells were treated with predetermined concentrations (0.01-10000 ng/ml) of the antibody alone (Ab alone) or in combination with a crosslinking antibody (anti-human Fc) (Serotec, U.S.A.) (Ab linked) and then cultured for 4 hours. […] When the reaction reached a predetermined level, fluorescence was read at 520 nm using a spectrophotometer (Molecular Device). Caspase activity was calculated as a fold increase of relative fluorescence units (RFU) of a test substance-treated group (treated RFU) to over the relative fluorescence units of a culture medium-treated group (untreated RFU) (Caspase activity=treated RFU/Untreated RFU). […]

caspase-3/7 [2] = test: Intracellular caspase activity (Apo-ONE Caspase-3/7), H2122; type: cell-based, human; conditions: H2122, Ab alone or Ab linked, 4 hours
Experimental: as §1

caspase-3/7 [3] = test: Intracellular caspase activity (Apo-ONE Caspase-3/7), Miapaca-2; type: cell-based, human; conditions: Miapaca-2, Ab alone or Ab linked, 4 hours
Experimental: as §1

[4] = system: human pancreatic cancer cell line Miapaca-2; test: Tumor cell death assay, co-treatment with gemcitabine, Miapaca-2; type: cell-based; conditions: Miapaca-2, gemcitabine 3 nM-300 nM, 48 to 72 hours
Experimental: (§2) Effects obtained from co-treatment with the above constructed antibody and gemcitabine were evaluated using in vitro tumor cell death assay.
(§3) The human pancreatic cancer cell lines Miapaca-2 (ATCC, U.S.A.) and Panc-1 (ATCC, U.S.A.) were each suspended at a density of 1×10^5 cells/ml. The suspensions were added in an amount of 50 μl to each well of 96-well cell culture plates and incubated for 16-24 hours in a constant temperature and humidity chamber. The cancer cell lines were treated with the anti-DR5 antibodies of the present disclosure including D0 in combination with certain concentrations (3 nM-300 nM) of gemcitabine and cultured for 48 to 72 hours. The cells were further incubated for 1 to 3 hours after addition of 10 μl of a resazurin solution (Invitrogen, U.S.A.) per well. When the reaction proceeded to a predetermined level, fluorescence was read at 590 nm using a spectrophotometer (Molecular Device). Cell viability was calculated as the percentage of relative fluorescence units (RFU) of a test substance-treated group (treated RFU) to relative fluorescence units of a culture medium-treated group (untreated RFU) (Cell viability (%)=treated RFU/Untreated RFU×100). The results are depicted in FIGS. 6a to 6r. Representative results are depicted in FIGS. 11a (Miapaca-2) and 11b (Panc-1). For comparison, the control antibody AP was treated in the same manner

[5] = system: human pancreatic cancer cell line Panc-1; test: Tumor cell death assay, co-treatment with gemcitabine, Panc-1; type: cell-based; conditions: Panc-1, gemcitabine 3 nM-300 nM, 48 to 72 hours
Experimental: as §2, §3

Ka(1/Ms) (Human DR5; association rate, Human DR5, 1:1 Langmuir binding model): 1.21 × 10^06 1/Ms
Kd (Human DR5; equilibrium dissociation constant, Human DR5): 0.0698 nM
activity of caspase-3/7 (caspase-3/7 [1]): increase in the activity of casapse-3/7
activity of caspase-3/7 (caspase-3/7 [2]): increase in the activity of casapse-3/7
activity of caspase-3/7 (caspase-3/7 [3]): increase in the activity of casapse-3/7
B1: DA29: humanized or deimmunized variant of parental clone D0; CDRs SEQ ID NO 1, 2, 7 / 4, 10, 13 (antibody, V domains shown)
VH: AVTLDESGGGLQTPGGGLSLVCKGSGFTFSSFNMLWVRQAPGKGLEWVAGIGKSDRYTGYGSAVKGRATISRDDGQSTARLQLNNLRAEDTGTYYCVKDAGSGCGSGGWTGACIDTWGHGTEVIVSS
VL: LTQPSSVSANLGGTVEITCSGGDSYAGSYYYGWYQQKAPGSAPVTVIYNNNNRPSNIPSRFSGSTSGSTATLTITGVQAEDEATYFCGSRDSSYVGIFGAGTTLTVL
apoptotic activity upon co-treatment with gemcitabine relative to each individual substance [4]: increased apoptotic activity
apoptotic activity upon co-treatment with gemcitabine relative to each individual substance [5]: increased apoptotic activity

Reference: patent US11840574B2, “Anti-DR5 antibody and use thereof” (DONG-A ST CO., LTD., priority 2017, dated 2023)
